Assay results: patent US5942405A, “Therapeutic and screening methods using C3a receptor and C3a” (priority 1997, dated 1999)

Columns and labels:
C5a-R = experiment: Calcium mobilization by Fura 2 loaded RBL-2H3 cells stably expressing C5a-R; assay type: cell-based, human; details: RBL-2H3 cells expressing C5a-R, Fig. 4: rC5a 10 nM, C3a analogue peptide 1 uM
Experimental: (A) Electrophysiological response of Xenopus oocytes injected with cRNA for C3a Receptor (10 ng), total U937 RNA (25 ng), or a mixture of C3a Receptor (10 ng) and U937 RNA (25 ng) to 10 nM rC5a, 10 nM C3a analogue peptide, 10 nM platelet activating factor (PAF), 10 nM fMetLeuPhe. Inset, represents typical response of oocytes co-injected with C3a Receptor cRNA+U937 RNA to 10 nM C3a. (B) Electrophysiological response of oocytes injected with C5a-R cRNA (10 ng), U937 RNA (25 ng) or a mixture of C5a-R and U937 RNA, to 10 nM rC5a or 10 nM C3a analogue peptide. […] Calcium mobilization by Fura 2 loaded cells expressing C5a receptor (FIGS. 4A & 4C) or C3a Receptor (FIGS. 4B & 4D) in response to rC5a (10 nM, FIG. 4A or 100 nM, FIG. 4B) or C3a analogue peptide (1 uM, FIGS. 4C & 4D).
(§1) To prepare C3a Receptor for expression in mammalian cells, a 1.6 kb cDNA fragment was obtained by PCR amplification that encompassed the entire C3a Receptor open reading frame. This fragment was subcloned into KpnI/Hind III sites of the mammalian expression vector, pCDN (Aiyar, N., et al (1994) Mol. Cell. Bio. 131, 75-86). Oligonucleotide primers used for PCR amplification were 5'-GA AGT GGT ACC ATG GCG TC-3' (SEQ ID NO:4) and 5'-GC TCCAAGCTTTCACACAGTTG-3' (SEQ ID NO:5) (the translation start and stop codons are underlined). RBL-2H3 cells were electroporated with either C3a Receptor or C5a-R in the pCDN mamalian expression vector (Aiyar, N., et al (1994) Mol. Cell. Bio. 131, 75-86), exactly as described (DeMartino, J. A., et al (1994) J. Biol Chem. 269, 14446-14450). Individual G418 resistant (400 μg/ml) colonies were isolated and expanded. Clonal cell lines expressing either C3a Receptor or C5a-R were chosen for further functional and binding studies.
RBL-2H3 cells (Siraganian, R. P., et al (1982) Fed. Proc. 41, 30-34), a rat basophil cell line, when transfected with an expression plasmid encoding the C5a-R express receptors that are functionally active (DeMartino, J. A., et al (1994) J. Biol. Chem. 269, 14446-14450). RBL-2H3 cells were stably transfected with mammalian expression plasmids encoding the C5a-R or C3a Receptor and Fura 2 loaded cells were tested for a C5a or C3a induced mobilization of intracellular Ca^2+.
Fura 2 loaded clonal cell lines expressing C5a-R or C3a Receptor were assayed for functional response, Ca^2+ mobilization, as described (Saussy, D. L. Jr., et al (1989) J. Biol. Chem. 264, 19845-19855).

C3a Receptor = molecular target: T1, C3a Receptor (Homo sapiens, UniProt Q16581); experiment: Whole cell 125I-C3a binding to C3a Receptor expressing RBL-2H3 cells (competition and saturation); design: cDNA encoding a complete orphan GPCR of 482 amino acids; expressed in transfected cells; details: for IC50: RBL-2H3 cells expressing C3a Receptor, 1×10^6 cells; for IC50 / competition of 125I-C3a binding / specific binding (in words): 2.3 nM labelled C3a; for competition of 125I-C3a binding / specific binding (in words): cells expressing C3a Receptor
T1 sequence (Q16581 1-482 F151C): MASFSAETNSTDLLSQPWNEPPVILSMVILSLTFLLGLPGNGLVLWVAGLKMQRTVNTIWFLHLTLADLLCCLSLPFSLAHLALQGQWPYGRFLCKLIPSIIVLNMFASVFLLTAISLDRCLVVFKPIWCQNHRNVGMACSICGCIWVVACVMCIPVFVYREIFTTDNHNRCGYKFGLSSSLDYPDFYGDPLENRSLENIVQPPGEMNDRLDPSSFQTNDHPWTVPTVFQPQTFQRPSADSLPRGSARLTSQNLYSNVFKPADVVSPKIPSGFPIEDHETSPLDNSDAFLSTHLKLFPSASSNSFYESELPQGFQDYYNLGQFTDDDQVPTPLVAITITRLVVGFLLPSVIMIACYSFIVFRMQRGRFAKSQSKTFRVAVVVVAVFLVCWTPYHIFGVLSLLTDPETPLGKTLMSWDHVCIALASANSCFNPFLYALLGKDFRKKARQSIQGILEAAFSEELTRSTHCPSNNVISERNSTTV
Text: as §1
The C3a carboxy-terminal analogue synthetic peptide, [WWGKKYRASKLGLAR (SEQ ID NO:3)] was obtained from Bachem Bioscience, Inc., King of Prussia, Pa. C3a was purchased from Advanced Research Technologies, San Diego, Calif. Human rC5a was expressed in E. coli and purified to homogeneity. Other agonists were obtained from Sigma, St. Louis, MO. C3a was radioiodinated using IODOBEADS (Pierce, Rockford Ill.) to a specific activity of 100 Cilmmol. Increasing concentrations of cold competitor were added to 1×10^6 cells in the presence of ^125 -C3a (2.3 nM), and the assay was performed essentially as described (Klos, A., et al (1992) Biochemistry 31, 11274-11282).
C3a was radioiodinated and used in whole cell binding assays to further characterize C3a Receptor. […] Curiously, HEK 293 cells stably expressing C3a Receptor mRNA by Northern Blot, neither bound nor responded to C3a (data not shown).

Molecule	mobilization of intracellular Ca2+ (response in words) (C5a-R)	mobilization of intracellular Ca2+ (response in words) (C5a-R; listed as native human C3a)	IC50 (C3a Receptor)	competition of 125I-C3a binding / specific binding (in words) (C3a Receptor)	Bmax (C3a Receptor; saturation binding and Scatchard analysis, data not shown)	Kd (C3a Receptor; saturation binding and Scatchard analysis, single class of sites, data not shown)
C3a: C3a was purchased from Advanced Research Technologies, San Diego; anaphylatoxin; radioiodinated for binding	not C5a receptor bind and respond	not C5a-R expressing RBL-2H3 cells also responded	3 nM	specifically bind	32,000 receptors per cell	0.3 nM
WWGKKYRASKLGLAR [C3a analogue synthetic peptide, reference compound]	no response	–	155 nM	specifically bind	–	–
rC5a: Human rC5a was expressed in E. coli and purified to homogeneity (protein, UniProt P01031 678-751, looked up, C5a anaphylatoxin recombinant, E. coli, Human rC5a was expressed in E. coli and purified to homogeneity) C5a anaphylatoxin: TLQKKIEEIAAKYKHSVVKKCCYDGACVNNDETCEQRAARISLGPRCIKAFTECCVVASQLRANISHKDMQLGR	responded	–	–	not	–	–
